Target: dGvpC (Ana GvpC with SG-… at the C-terminus, encoded in the acoustic sensor gene for ClpXP) (Anabaena flos-aquae) (UniProt P09413)
Test: cell-based or functional assay

Sequence of dGvpC (Ana GvpC with SG-… at the C-terminus, encoded in the acoustic sensor gene for ClpXP) (Anabaena flos-aquae) (P09413 1-193, tags or fused parts left off): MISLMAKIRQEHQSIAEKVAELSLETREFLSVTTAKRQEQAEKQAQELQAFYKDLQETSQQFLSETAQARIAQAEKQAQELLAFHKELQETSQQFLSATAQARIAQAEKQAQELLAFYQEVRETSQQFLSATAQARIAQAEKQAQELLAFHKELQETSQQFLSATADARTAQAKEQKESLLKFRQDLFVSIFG

Substance: ClpXP of E. coli Nissle 1917 (native, or ClpX and ClpP cloned from the Nissle genome under the pBAD promoter) (from UniProt P0A6H1 2-424; P0A6G7 15-207) (enzyme)
- hydrostatic collapse pressure midpoint of intact WT Nissle cells, ASGClpXP against ARGWT: 160 kPa
- hydrostatic collapse pressure midpoint of ΔClpXP Nissle cells with against without ClpXP induction: 160 kPa
- nonlinear ultrasound contrast of live WT Nissle cells, ASGClpXP against ARGWT: 13 dB
- nonlinear ultrasound contrast of ΔClpXP Nissle cells with against without ClpXP induction: 6.7 dB
